According to US20240092942A1:
Values belong to the substance of their own block, whether it stands above or below them.

Columns and labels:
[1] = target: huFcγRIIb on CHO^huFcγRIIb cells; test: flow cytometry on CHO^huFcγRIIb cells, anti-huCD32 mAb + PE-GAM F(ab')2; histogram peak at about 1.5e3; parental CHO cells: 86 printed
[2] = target: huEGFR on the cell surface (3T3^huEGFR, wild-type HEK293 (EGFR+), A431 cells) (human) (UniProt P00533); test: flow cytometry on MDA-MB-231 cells, PE-conjugated anti-huEGFR mAb; first number of the panel, given to the first cell line of the key (broad, most shifted histogram) [cont.) g, upper panel]
[3] = target: huEGFR on the cell surface (3T3^huEGFR, wild-type HEK293 (EGFR+), A431 cells) (human) (UniProt P00533); test: flow cytometry on 3T3^huEGFR cells, PE-conjugated anti-huEGFR mAb; second number of the panel, given to the second cell line of the key (narrow histogram) [cont.) g, upper panel]
[4] = target: huEGFR on the cell surface (3T3^huEGFR, wild-type HEK293 (EGFR+), A431 cells) (human) (UniProt P00533); test: flow cytometry on 3T3^huEGFR cells, PE-conjugated anti-huEGFR mAb; histogram peak at about 2e3; parental 3T3 cells: 176 printed
[5] = target: PD-L1 on MDA-MB-231 cells (Homo sapiens) (UniProt Q9NZQ7); test: flow cytometry on MDA-MB-231 cells, APC-conjugated anti-huPD-L1 mAb; histogram peak at about 3e3 against control at about 2.5e2; 3T3^huEGFR cells (PD-L1 negative): 0 printed [cont.) g, lower panel]
PD-L1 on MDA-MB-231 cells (Homo sapiens), sequence (Q9NZQ7 19-290 limits assumed): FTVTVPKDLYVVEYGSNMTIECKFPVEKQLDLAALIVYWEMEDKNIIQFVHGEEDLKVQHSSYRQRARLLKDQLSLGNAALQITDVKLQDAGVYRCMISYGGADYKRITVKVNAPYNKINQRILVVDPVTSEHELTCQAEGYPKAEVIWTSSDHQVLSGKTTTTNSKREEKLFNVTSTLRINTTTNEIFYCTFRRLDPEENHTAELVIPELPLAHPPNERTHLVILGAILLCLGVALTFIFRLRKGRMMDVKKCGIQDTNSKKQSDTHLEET

MFI [1]: 1040
Substance: anti-huCD32 mAb (clone FUN-2); the sheet prints only the axis label huFcγRIIb (antibody)

MFI [2]: 5820 | MFI [3]: 1820 | MFI [4]: 1730
Substance: anti-huEGFR PE-conjugated mAb (clone EGFR.1); the sheet prints only the axis label huEGFR (antibody)

MFI [5]: 3260
Substance: anti-huPD-L1 APC-conjugated mAb (clone MIH1); the sheet prints only the axis label PD-L1 (antibody)
